Where a chain is given by its changes, count along the chain named.
T1: human TGFβ2 (human, UniProt P61812 303-414)
T1 construct: also called TGFβ2 homodimer
T1 sequence: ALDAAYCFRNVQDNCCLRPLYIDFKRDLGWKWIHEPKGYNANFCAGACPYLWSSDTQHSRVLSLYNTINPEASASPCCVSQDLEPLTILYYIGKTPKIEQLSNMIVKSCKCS

T2: human TGFβ3 (human, UniProt P10600 301-412)
T2 sequence: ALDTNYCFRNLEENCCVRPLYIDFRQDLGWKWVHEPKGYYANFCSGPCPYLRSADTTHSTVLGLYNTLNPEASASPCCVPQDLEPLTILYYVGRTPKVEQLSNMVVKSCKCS

B1: N32D (antibody, V domains shown)
VH: QVQLVQSGAEVKKPGSSVKVSCKASGYTFSSDVISWVRQAPGQGLEWMGGVIPIVDIANYAQRFKGRVTITADESTSTTYMELSSLRSEDTAVYYCASTLGLVLDAMDYWGQGTLVTVSS
VL: ETVLTQSPGTLSLSPGERATLSCRASQSLGSSYLAWYQQKPGQAPRLLIYGASSRAPGIPDRFSGSGSGTDFTLTISRLEPEDFAVYYCQQYADSPITFGQGTRLEIK
notes: GC1008 IgG4 variant
B2: N32G (antibody, V domains shown)
VH: B1 VH with D32G
VL: B1 VL
notes: GC1008 IgG4 variant
B3: N32L (antibody, V domains shown)
VH: B1 VH with D32L
VL: B1 VL
notes: GC1008 IgG4 variant
B4: N32M (antibody, V domains shown)
VH: B1 VH with D32M
VL: B1 VL
notes: GC1008 IgG4 variant
B5: N32P (antibody, V domains shown)
VH: B1 VH with D32P
VL: B1 VL
notes: GC1008 IgG4 variant
B6: N32Q (antibody, V domains shown)
VH: B1 VH with D32Q
VL: B1 VL
notes: GC1008 IgG4 variant
B7: N32R (antibody, V domains shown)
VH: B1 VH with D32R
VL: B1 VL
notes: GC1008 IgG4 variant
B8: N32S (antibody, V domains shown)
VH: B1 VH with D32S
VL: B1 VL
notes: GC1008 IgG4 variant
B9: N32T (antibody, V domains shown)
VH: B1 VH with D32T
VL: B1 VL
notes: GC1008 IgG4 variant
B10: N32V (antibody, V domains shown)
VH: B1 VH with D32V
VL: B1 VL
notes: GC1008 IgG4 variant
B11: N32W (antibody, V domains shown)
VH: B1 VH with D32W
VL: B1 VL
notes: GC1008 IgG4 variant
B12: N32Y (antibody, V domains shown)
VH: B1 VH with D32Y
VL: B1 VL
notes: GC1008 IgG4 variant
B13: N59R (antibody, V domains shown)
VH: B1 VH with D32N, N59R
VL: B1 VL
notes: GC1008 IgG4 variant
B14: N59Y (antibody, V domains shown)
VH: B1 VH with D32N, N59Y
VL: B1 VL
notes: GC1008 IgG4 variant
B15: P53I (antibody, V domains shown)
VH: B1 VH with D32N, P53I
VL: B1 VL
notes: GC1008 IgG4 variant
B16: S30C (antibody, V domains shown)
VH: B1 VH with S30C, D32N
VL: B1 VL
notes: GC1008 IgG4 variant
B17: S30D (antibody, V domains shown)
VH: B1 VH with S30D, D32N
VL: B1 VL
notes: GC1008 IgG4 variant
B18: S30F (antibody, V domains shown)
VH: B1 VH with S30F, D32N
VL: B1 VL
notes: GC1008 IgG4 variant
B19: S30G (antibody, V domains shown)
VH: B1 VH with S30G, D32N
VL: B1 VL
notes: GC1008 IgG4 variant
B20: S30I (antibody, V domains shown)
VH: B1 VH with S30I, D32N
VL: B1 VL
notes: GC1008 IgG4 variant
B21: S30L (antibody, V domains shown)
VH: B1 VH with S30L, D32N
VL: B1 VL
notes: GC1008 IgG4 variant
B22: S30M (antibody, V domains shown)
VH: B1 VH with S30M, D32N
VL: B1 VL
notes: GC1008 IgG4 variant
B23: S30N (antibody, V domains shown)
VH: B1 VH with S30N, D32N
VL: B1 VL
notes: GC1008 IgG4 variant
B24: S30P (antibody, V domains shown)
VH: B1 VH with S30P, D32N
VL: B1 VL
notes: GC1008 IgG4 variant
B25: S30Q (antibody, V domains shown)
VH: B1 VH with S30Q, D32N
VL: B1 VL
notes: GC1008 IgG4 variant
B26: S30R (antibody, V domains shown)
VH: B1 VH with S30R, D32N
VL: B1 VL
notes: GC1008 IgG4 variant
B27: S30T (antibody, V domains shown)
VH: B1 VH with S30T, D32N
VL: B1 VL
notes: GC1008 IgG4 variant
B28: S30V (antibody, V domains shown)
VH: B1 VH with S30V, D32N
VL: B1 VL
notes: GC1008 IgG4 variant
B29: S30Y (antibody, V domains shown)
VH: B1 VH with S30Y, D32N
VL: B1 VL
notes: GC1008 IgG4 variant
B30: S31A (antibody, V domains shown)
VH: B1 VH with S31A, D32N
VL: B1 VL
notes: GC1008 IgG4 variant
B31: S31E (antibody, V domains shown)
VH: B1 VH with S31E, D32N
VL: B1 VL
notes: GC1008 IgG4 variant

The binders below were run against T1, human TGFβ2 (assay: Biacore off-rate vs wt GC1008, 50 nM).
Excerpt: (§1) Plasmids encoding either the GC1008 heavy chain or light chain were used as a template in PCR-based mutagenesis reactions. Mutations to the encoding DNA were made to create 155 single amino acid substitutions of the encoded heavy chain amino acid sequence and one single amino acid substitution of the encoded light chain amino acid sequence. A QuikChange® Lightning Site-Directed Mutagenesis kit (Agilent Technologies, Santa Clara Calif.) was used according to the manufacturer's instructions to create DNA mutations using a set of forward and reverse primers, either designed for a specific amino acid or for all 20 amino acids with a degenerate codon (NNK). After sequencing confirmation, identified mutant DNA was paired with a wild-type light or heavy chain DNA for transfection into an Expi293F™ host cell suspension (Life Techonologies Corp., Grand Island, N.Y.). At 4 days post-transfection, conditioned media (1 mL) was harvested and purified using a 1 mL Protein A PhyTip® column (PhyNexus, Inc., San Jose, Calif.) and a PureSpeed™ 12-channel pipette (Rainin Instrument LLC, Oakland, Calif.). Purified variant antibody samples were analyzed in duplicate on a Biacore® 3000 (GE Healthcare) at 50 nM concentrations, using the 100 RU level TGFβ1, 2, and 3 immobilized surfaces. The off-rate (kd) of the variants was divided by the kd of the wild-type control to obtain the fold change in the kd. […] A heat map was generated to visualize the results. Variants that completely lost affinity for TGFβ were shown in red without numbers.

Going from B1 to B2, the kd var/kd wt falls from 1.4 to 1.2.

B3 and B4 are the same in kd var/kd wt: 1.3 for the first, 1.3 for the second.

Compared with B5, B6 is lower in kd var/kd wt: 1.1 for the first, 0.8 for the second.

First: B7
Second: B8
The kd var/kd wt of the first is lower: 1.2 for the first, 1.3 for the second.

First: B9
Second: B10
The kd var/kd wt of the first is higher: 1.2 for the first, 1.1 for the second.

B11 and B12 are the same in kd var/kd wt: 1.2 for the first, 1.2 for the second.

B13 and B14 are the same in kd var/kd wt: 1.1 for the first, 1.1 for the second.

First: B15
Second: B16
The kd var/kd wt of the first is higher: 1.6 for the first, 1.1 for the second.

Going from B17 to B18, the kd var/kd wt falls from 1.2 to 0.9.

Compared with B19, B20 is higher in kd var/kd wt: 0.7 for the first, 1.1 for the second.

Going from B21 to B22, the kd var/kd wt falls from 1 to 0.9.

Compared with B23, B24 is lower in kd var/kd wt: 1.3 for the first, 1 for the second.

B25 and B26 are the same in kd var/kd wt: 1.2 for the first, 1.2 for the second.

B27 and B28 are the same in kd var/kd wt: 1.2 for the first, 1.2 for the second.

Compared with B29, B30 is higher in kd var/kd wt: 0.9 for the first, 1.2 for the second.

Binder B31 has a kd var/kd wt of 1.4.

Each binder was assayed against T3, human TGFβ1 (human, UniProt P01137 279-390) (assay: Biacore off-rate vs wt GC1008, 50 nM).
T3 construct: also called TGFβ1 homodimer
Excerpt: as §1

T3 sequence (P01137 279-390 limits assumed): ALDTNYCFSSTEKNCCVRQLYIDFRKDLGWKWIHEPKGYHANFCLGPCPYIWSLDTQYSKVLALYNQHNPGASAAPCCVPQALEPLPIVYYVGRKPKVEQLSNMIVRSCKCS

Going from B1 to B2, the kd var/kd wt falls from 1.3 to 1.2.

Compared with B3, B4 is lower in kd var/kd wt: 1.6 for the first, 1.3 for the second.

Going from B5 to B6, the kd var/kd wt falls from 2 to 0.8.

Going from B7 to B8, the kd var/kd wt falls from 2.3 to 1.3.

B9 and B10 are the same in kd var/kd wt: 1.5 for the first, 1.5 for the second.

Going from B11 to B12, the kd var/kd wt rises from 1.9 to 2.1.

Compared with B13, B14 is lower in kd var/kd wt: 2.4 for the first, 1.3 for the second.

Compared with B15, B16 is lower in kd var/kd wt: 4.3 for the first, 1.2 for the second.

First: B17
Second: B18
The kd var/kd wt of the first is higher: 1.4 for the first, 1 for the second.

Going from B19 to B20, the kd var/kd wt rises from 0.9 to 1.4.

First: B21
Second: B22
The kd var/kd wt of the first is higher: 1 for the first, 0.7 for the second.

Compared with B23, B24 is lower in kd var/kd wt: 1.3 for the first, 1.2 for the second.

Compared with B25, B26 is higher in kd var/kd wt: 1.2 for the first, 1.9 for the second.

Going from B27 to B28, the kd var/kd wt falls from 1.2 to 1.1.

Going from B29 to B30, the kd var/kd wt rises from 1 to 1.2.

B31 was tested, and the kd var/kd wt was 1.7.

The binders below were run against T2, human TGFβ3 (assay: Biacore off-rate vs wt GC1008, 50 nM).
Excerpt: as §1

First: B1
Second: B2
The kd var/kd wt of the first is higher: 1.8 for the first, 1.6 for the second.

First: B3
Second: B4
The kd var/kd wt of the first is higher: 1.7 for the first, 1.2 for the second.

Going from B5 to B6, the kd var/kd wt falls from 1.4 to 0.7.

Compared with B7, B8 is lower in kd var/kd wt: 1.7 for the first, 1.2 for the second.

Compared with B9, B10 is higher in kd var/kd wt: 1.1 for the first, 1.4 for the second.

Compared with B11, B12 is higher in kd var/kd wt: 1.1 for the first, 1.7 for the second.

B13 and B14 are the same in kd var/kd wt: 1.5 for the first, 1.5 for the second.

Going from B15 to B16, the kd var/kd wt falls from 1.3 to 1.

Compared with B17, B18 is lower in kd var/kd wt: 1.1 for the first, 0.7 for the second.

Compared with B19, B20 is higher in kd var/kd wt: 0.9 for the first, 1.1 for the second.

B21 and B22 are the same in kd var/kd wt: 1 for the first, 1 for the second.

First: B23
Second: B24
The kd var/kd wt of the first is higher: 1.2 for the first, 0.9 for the second.

First: B25
Second: B26
The kd var/kd wt of the first is lower: 1.1 for the first, 1.3 for the second.

B27 and B28 are the same in kd var/kd wt: 1.1 for the first, 1.1 for the second.

Going from B29 to B30, the kd var/kd wt rises from 0.8 to 1.1.

B31 was tested, and the kd var/kd wt was 1.4.
